From the supplement of paper PMC12042874 come the findings set out here.

± gives the uncertainty stated by the source.

The nature of the series: amyloid nucleation score (Sup35N fusion, yeast selection) (log enrichment); library NNK1; higher = more nucleation; inactive = no reads after selection. An outline of the steps:
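On medium lacking adenine and uracil, psi-negative yeast expressing peptides of 20 random codons fused to Sup35N were grown 7 days at 30°C after a 24-hour induction with 100 μM copper sulfate. Illumina sequencing of input and output plasmid inserts gave the reads, and sequences under 100 input reads were excluded. The nucleation score is the DiMSum log enrichment of output over input reads, centred on the mode score of non-aggregating sequences.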

As to DEGRDLILISLAHRTSRIDP, the amyloid nucleation score was determined as 1.29 ± 0.26.

PCLSDMRLTSAEKGFV showed an amyloid nucleation score of 0.455 ± 0.69.

Turning to HSSPLGLLWGAPARRRYCRR, the amyloid nucleation score is -0.32 ± 0.87.

As for ILYTNRMCLWSKTSNFLPLR, the amyloid nucleation score was -0.318 ± 0.29.

In the case of NLLTWRD, the amyloid nucleation score was found to be 0.743 ± 0.64.

Take SAHSDPQMRKNSLTYGNDLI: the amyloid nucleation score was -0.116 ± 0.42.

On to EYSADTIGVIGLGTAPDERR, for which the amyloid nucleation score was -0.239 ± 0.84.

As to LMNICRNVARG, the amyloid nucleation score was -0.876 ± 0.71.

Consider MASTESNPIKLLKVHLKYTS, for which the amyloid nucleation score is -0.97 ± 1.4.

As for MKDSGCPSGNNTALEGASLI, the amyloid nucleation score turned out to be 0.269 ± 0.49.

VLCPW: the amyloid nucleation score is -0.283 ± 0.44.

The substance FDATFVMLRSRAFFKICKER displayed an amyloid nucleation score of 0.751 ± 0.27.

The substance FIRTRLIIYLSEDGYPVA registered an amyloid nucleation score of 1.31 ± 0.21.

For YWIIKVRNRLVPRFFKYKGS, the amyloid nucleation score was -0.491 ± 0.39.

In turn, LLGMRFSVVPSPATFGWTHF had an amyloid nucleation score of 1.81 ± 0.18.

On to SSFCRLLNIMYSRWGGLGTY, for which the amyloid nucleation score result was “inactive”.

In turn, VAKAPSNSCTLCHDWYGRST displayed an amyloid nucleation score of 0.101 ± 1.4.

AIPLSDRR registered an amyloid nucleation score of 1.48 ± 0.88.

As for GWCYSDVVMLPF, the amyloid nucleation score was -0.141 ± 0.34.

Take HHSVGSYRINCLV: the amyloid nucleation score came out at 3.39 ± 0.089.

Take QNDTYLI: the amyloid nucleation score came out at 0.022 ± 1.1.

LGHGLDRMKLRTECNCTVVD: the amyloid nucleation score is -0.503 ± 0.3.

Regarding NAQWKHETHIFCSAMFVTEC, the amyloid nucleation score amounted to 0.878 ± 0.45.

The substance QLSFYSFCPMATYRSSNSDL yielded an amyloid nucleation score of 5.92 ± 0.053.

TFEYDT came in with an amyloid nucleation score of 0.332 ± 0.61.

The substance KKKRRLSSWYSHPVPSSGLL came in with an amyloid nucleation score of 0.488 ± 1.

Consider GYEVKMHYSVLIINNSCPCL, for which the amyloid nucleation score was determined as 0.95 ± 0.25.

On to RDVDRGMHQMAPSTGVRLVL, for which the amyloid nucleation score is 2.81 ± 0.14.

Turning to VFAICGSTCVGEKGTWPGEG, the amyloid nucleation score was -0.263 ± 1.4.

Regarding VAEAFTIGWGGNESSSVRSS, the amyloid nucleation score is -0.348 ± 0.52.

NRNISAIGACTGCTNMVFYS yielded an amyloid nucleation score of 5.64 ± 0.11.

Consider NVSKDS, for which the amyloid nucleation score was -0.063 ± 0.54.

As for YELKSDNLFVRLF, the amyloid nucleation score is -0.706 ± 0.46.

RLLVFQSCKFVRGTSLCLVT showed an amyloid nucleation score of 3.66 ± 0.069.

On to LGLTYWCYNFIQGDVFPPVQ, for which the amyloid nucleation score was 3.46 ± 0.15.

GDCTLVMLINE gave an amyloid nucleation score of 0.011 ± 0.28.

In the case of LNYSWDWLVVCIVANVRTYD, the amyloid nucleation score was determined as 2.22 ± 0.12.

On to WDTDVLRDNWSQLRFLVSGR, for which the amyloid nucleation score was -0.216 ± 0.21.

Substance ALKWSTLLTLFLGYSHIVSM yielded an amyloid nucleation score of 1.46 ± 0.38.

As for PEAPPLLIVSGFN, the amyloid nucleation score was found to be 1.2 ± 0.79.

On to SIWKRLYFQVNGL, for which the amyloid nucleation score amounted to 0.925 ± 0.92.

Consider IRGTTRAFLANQGCDVLYTG, for which the amyloid nucleation score is -0.865 ± 0.86.

Substance ILRNDMSATVNM displayed an amyloid nucleation score of 0.97 ± 0.17.

With LDVSTRQRLVGVD, the amyloid nucleation score is -0.2 ± 0.61.

As for VSNNYRDV, the amyloid nucleation score was determined as 0.807 ± 0.72.

As to LTSCASLWEDRVVLSCLPGG, the amyloid nucleation score result is “inactive”.

As to LVTDPWISTLSSFHLWGGFM, the amyloid nucleation score worked out at 0.887 ± 0.7.

As to IICISFWSVKLVDHPMVSNG, the amyloid nucleation score was found to be 0.726 ± 0.75.

As for AIAIPDRCLFYATRFSCDSR, the amyloid nucleation score entry is “inactive”.

VRSPFSIHRRFLTLGIQEFS came in with an amyloid nucleation score of 1.4 ± 0.74.

On to ENVSVIRFQRRYRSCPDHGL, for which the amyloid nucleation score amounted to 0.04 ± 0.46.

Take LLLSSLTDFHVVDRLIKQAW: the amyloid nucleation score is -0.003 ± 0.41.

Take YVKISVLGSKIYNIS: the amyloid nucleation score came out at 5.38 ± 0.093.

SEGMYSRMAIEWLSGE gave an amyloid nucleation score of 1.21 ± 0.69.

Regarding TGYVVVMVYCWSCLGGQSVA, the amyloid nucleation score amounted to 0.119 ± 0.89.

Turning to RYSLYQSEWVGKSMRDLTAR, the amyloid nucleation score amounted to 1.03 ± 0.62.

As for IWHFASCAYGGVGSKGDPSD, the amyloid nucleation score turned out to be 0.67 ± 0.69.
